{"source": "patent US20150056205A1", "about": "“STEROID SPARING AGENTS AND METHODS OF USING SAME” (BIOGEN IDEC MA INC., priority 2004, published 2015)", "key": {"[1]": {"system": "adult subjects with Crohn's disease (CD)", "assay": "maintenance of clinical response and remission in Crohn's Disease, six month regimen (Example 10)", "format": "in vivo, human", "procedure": "This experiment was a double-blind, placebo-controlled study of the efficacy, safety, and tolerability of natalizumab in maintaining clinical response and remission in Crohn's Disease.\nNatalizumab, a humanized monoclonal IgG4 antibody to α4 integrin, was evaluated in a randomized, controlled study to determine the ability of a six month regimen to maintain clinical response/remission achieved in natalizumab-treated subjects in the […] induction of response/remission study.\nLoss of response was defined as a CDAI≧220 and ≧70-point increase from baseline CDAI in the second study or use of rescue intervention. Maintenance of remission was also assessed."}, "[2]": {"system": "mice, guinea pigs, and monkeys", "conditions": "in vivo", "procedure": "Single- and multiple-dose toxicity studies have been performed in mice, guinea pigs, and monkeys. All toxicology studies were carried out using natalizumab and included an acute study in guinea pigs, subacute studies in mouse and cynomolgus monkeys, and mutagenicity and tissue cross-reactivity studies."}, "α4 integrin": {"target": "T1, α4 integrin (Homo sapiens, UniProt P13612)", "T1 construct": "endogenous in cells; host or cells: circulating leukocytes of healthy volunteers and MS/IBD subjects (in vivo)", "assay": "single dose pharmacokinetics and α4 integrin receptor saturation in clinical trials", "format": "in vivo", "procedure": "The initial dose of natalizumab selected for clinical evaluation was based on non-clinical studies in the guinea pig Experimental Allergic Encephalitis (EAE) model. […] A single dose of 3 mg/kg appeared to provide serum concentrations of natalizumab associated with α4 integrin receptor blockade for up to approximately 3 weeks, and 6 mg/kg for about 6 weeks.\nNatalizumab has been evaluated in all clinical trials to date by administration of dose adjusted for bodyweight. […] A single infusion of a higher dose of 6 mg/kg natalizumab produced α4 integrin saturation levels which were slightly higher and more prolonged (approximately 6 weeks)."}, "[3]": {"system": "subjects with moderately to severely active Crohn's disease", "assay": "placebo-controlled one or two infusion study in moderately to severely active Crohn's disease", "format": "in vivo", "conditions": "for subjects withdrawn due to adverse events: placebo 2; for subjects reporting a serious adverse event: placebo 9", "procedure": "Another earlier study was a double-blind, placebo-controlled, parallel group, multicenter, efficacy, safety, and tolerability study of either one or two intravenous infusions of placebo, 3 or 6 mg/kg natalizumab in subjects with moderately to severely active Crohn's disease. […] Sixty-eight subjects were randomized to a single infusion of 3 mg/kg, 66 to two infusions of 3 mg/kg at a 4-week interval, 51 to two infusions of 6 mg/kg at a 4-week interval and 63 to receive placebo."}, "[4]": {"conditions": "Week 6, two infusions of 3 mg/kg"}}}
{"substance": "natalizumab", "values": [{"measurement": "subjects taking steroids in the first study who were withdrawn from steroids", "setting": "[1]; 300 mg monthly, placebo 25%", "value": 55, "unit": "%"}, {"measurement": "subjects who maintained clinical remission", "setting": "[1]; at 6 months, 300 mg monthly, placebo 26%", "value": 44, "unit": "%"}, {"measurement": "subjects continuing to meet the criteria for clinical response", "setting": "[1]; at 6 months, ITT population, 300 mg monthly, placebo 29%", "value": 61, "unit": "%"}, {"measurement": "tolerability", "setting": "[1]; monthly administration for 6 months", "value": "well tolerated"}, {"measurement": "rates of serious and non-serious adverse events between treatment groups", "setting": "[1]; versus placebo", "value": "No notable difference"}, {"measurement": "clinical or postmortem evidence of toxicity", "setting": "[2]", "value": "did not demonstrate clinical or postmortem evidence of significant toxicity"}, {"measurement": "time serum concentrations, receptor saturation and inhibition of cell adhesion are maintained", "setting": "α4 integrin; 3 mg/kg infusion", "value": "3-4 weeks"}, {"measurement": "natalizumab serum concentrations maintained", "setting": "α4 integrin; 3 mg/kg infusion, healthy volunteers, subjects with MS and IBD", "value": "2.5 to 3.0", "unit": "µg/mL"}, {"measurement": "clearance, dependence on bodyweight", "setting": "α4 integrin; human, in vivo", "value": "largely independent of bodyweight"}, {"measurement": "duration of serum concentrations associated with α4 integrin receptor blockade", "setting": "α4 integrin; single dose of 3 mg/kg", "value": "approximately 3 weeks"}, {"measurement": "duration of serum concentrations associated with α4 integrin receptor blockade", "setting": "α4 integrin; single dose of 6 mg/kg", "value": "about 6 weeks"}, {"measurement": "duration of α4 integrin saturation", "setting": "α4 integrin; single infusion of 6 mg/kg", "value": "approximately 6 weeks"}, {"measurement": "remission rate (CDAI<150)", "setting": "[3]; [4]", "value": 46, "unit": "%"}, {"measurement": "response rate (≧70 point drop in CDAI)", "setting": "[3]; [4]", "value": 73, "unit": "%"}, {"measurement": "response rate (≧100 drop in CDAI)", "setting": "[3]; [4]", "value": 56, "unit": "%"}, {"measurement": "remission rates (CDAI<150)", "setting": "[3]; Weeks 8 and 12, two infusions of 3 mg/kg and two infusions of 6 mg/kg", "value": "41-43%"}, {"measurement": "C-reactive protein", "setting": "[3]; in vivo", "value": "decreases"}, {"measurement": "quality of life, Inflammatory Bowel Disease Questionnaire", "setting": "[3]; in vivo", "value": "Statistically significant improvements"}, {"measurement": "subjects withdrawn due to adverse events", "setting": "[3]; single 3.0 mg/kg infusion", "value": 1}, {"measurement": "subjects reporting a serious adverse event", "setting": "[3]; single 3.0 mg/kg infusion", "value": 8}, {"measurement": "safety and tolerability", "setting": "[3]; subjects with active CD", "value": "safe and well tolerated"}, {"measurement": "subjects withdrawn due to adverse events", "setting": "[3]; two 3 mg/kg infusions", "value": 2}, {"measurement": "subjects reporting a serious adverse event", "setting": "[3]; two 3 mg/kg infusions", "value": 8}, {"measurement": "subjects withdrawn due to adverse events", "setting": "[3]; two 6 mg/kg infusions", "value": 3}, {"measurement": "subjects reporting a serious adverse event", "setting": "[3]; two 6 mg/kg infusions", "value": 7}]}
